Consider one molecule from publication PMC4852880.

This data set addresses HMGB1b (rat, UniProt P63159 95-163). The experiment in a line: EMSA.

Sequence of HMGB1b (P63159 95-163): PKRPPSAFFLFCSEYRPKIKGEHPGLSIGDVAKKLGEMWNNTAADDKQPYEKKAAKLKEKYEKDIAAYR

B1: J1 (structured_DNA)
DNA 1: CGCAATCCTGAGCACG
DNA 2: CGTGCTCACCGAATCG
DNA 3: GCATTCGGACTATGGC
DNA 4: GCCATAGTGGATTGCG
As to B1, the binding result was “binds”.
